Laboratory results as given in patent US20020169118A1 (Amgen, published 2002).

Target: T1, TNF-β (lymphotoxin) (UniProt P01374 35-205, limits assumed)
T1 sequence (looked up): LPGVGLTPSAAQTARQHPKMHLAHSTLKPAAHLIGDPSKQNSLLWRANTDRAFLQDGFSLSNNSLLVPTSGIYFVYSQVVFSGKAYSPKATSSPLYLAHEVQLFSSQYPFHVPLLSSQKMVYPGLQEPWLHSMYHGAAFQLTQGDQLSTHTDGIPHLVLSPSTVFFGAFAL
Assay: preliminary competition binding tests; reference TNF-α

B1: TNF-BP (TNF binding protein), natural, purified from dialyzed urine of uraemia patients (receptor)
chain: DSVCPQGKYIHPQNNSICCTKCHKGTYLYNDCPGPGQDTDCRECESGSFTASENHLRHCLSCSKCRKEMGQVEISSCTVDRDTVCGCRKNQYRHYWSENLFQCFNCSLCLNGTVHLSCQEKQNTVCTCHAGFFLRENECVSCSNCKKSLECTKLCLPQIEN
modifications: glycoprotein; Asn-25 glycosylated (numbering of the TNF-BP cDNA sequence, Leu-1 = first residue after the signal peptide)
notes: Soluble extracellular part of the human TNF receptor; The main form (about 80% of the protein) starts at Asp-12; also called natural TNF-BP
affinity for TNF-β relative to its affinity for TNF-α: ~0.02 fold
